Laboratory results as given in patent US20190060239A1, “Technology for the Preparation of Microparticles” (Ansun Biopharma, Inc., priority 2007, published 2019).

Assay: Sialidase activity with fluorogenic substrate 4-MU-NANA
Format: biochemical
Protocol: The sialidase activity of DAS181 was measured using the fluorogenic substrate 4-methylumbelliferyl-N-acetyl-α-D-neuraminic acid (4-MU-NANA; Sigma). One unit of sialidase is defined as the amount of enzyme that releases 10 nmol of MU from 4-MU-NANA in 10 minutes at 37° C. (50 mM CH3COOH—NaOH buffer, pH 5.5) in a reaction that contains 20 nmol of 4-MU-NANA in a 0.2 ml volume (Potier et al., Anal. Biochem., 94:287-296, 1979). The specific activity of DAS181 was determined to be 1,300 U/mg protein (0.77 μg DAS181 protein per unit of activity).

B1: DAS181: fusion protein: heparin (GAG) binding domain of human amphiregulin fused to a catalytic domain of Actinomyces Viscosus sialidase (SEQ ID NO:17) (protein)
chain: MGDHPQATPAPAPDASTELPASMSQAQHLAANTATDNYRIPAITTAPNGDLLISYDERPKDNGNGGSDAPNPNHIVQRRSTDGGKTWSAPTYIHQGTETGKKVGYSDPSYVVDHQTGTIFNFHVKSYDQGWGGSRGGTDPENRGIIQAEVSTSTDNGWTWTHRTITADITKDKPWTARFAASGQGIQIQHGPHAGRLVQQYTIRTAGGAVQAVSVYSDDHGKTWQAGTPIGTGMDENKVVELSDGSLMLNSRASDGSGFRKVAHSTDGGQTWSEPVSDKNLPDSVDNAQIIRAFPNAAPDDPRAKVLLLSHSPNPRPWSRDRGTISMSCDDGASWTTSKVFHEPFVGYTTIAVQSDGSIGLLSEDAHNGADYGGIWYRNFTMNWLGEQCGQKPAKRKKKGGKNGKNRRNRKKKNP
modifications: DAS181
specific activity of DAS181 (4-MU-NANA, 37°C, pH 5.5, one unit releases 10 nmol MU in 10 minutes): 1,300 U/mg protein | DAS181 protein per unit of activity (same assay): 0.77 µg
